Laboratory results: patent US20250197501A1

Key:
[1] = biological target: human B7-H3 on the surface of human cancer cells (human) (UniProt Q5ZPR3); assay: flow cytometry, A549 cells
[2] = biological target: human B7-H3 on the surface of human cancer cells (human) (UniProt Q5ZPR3); assay: flow cytometry, Huh7 cells
[3] = biological target: human B7-H3 on the surface of human cancer cells (human) (UniProt Q5ZPR3); assay: flow cytometry, PC-3 cells
[4] = biological target: human B7-H3 on the surface of human cancer cells (human) (UniProt Q5ZPR3); assay: flow cytometry, DU145 cells
[5] = biological target: human B7-H3 on the surface of human cancer cells (human) (UniProt Q5ZPR3); assay: flow cytometry, H1299 cells
[6] = biological target: human B7-H3 on the surface of human cancer cells (human) (UniProt Q5ZPR3); assay: flow cytometry, HA59T cells
[7] = biological target: human B7-H3 on the surface of human cancer cells (human) (UniProt Q5ZPR3); assay: flow cytometry, HepG2 cells
[8] = biological target: human B7-H3 on the surface of human cancer cells (human) (UniProt Q5ZPR3); assay: flow cytometry, LNCaP cells
[9] = biological target: human B7-H3 on the surface of human cancer cells (human) (UniProt Q5ZPR3); assay: flow cytometry, CAL 27 cells
[10] = biological target: human B7-H3 on the surface of human cancer cells (human) (UniProt Q5ZPR3); assay: flow cytometry, OECM-1 cells
[11] = biological target: human B7-H3 on the surface of human cancer cells (human) (UniProt Q5ZPR3); assay: flow cytometry, NCI-H520 cells
[12] = biological target: human B7-H3 on the surface of human cancer cells (human) (UniProt Q5ZPR3); assay: flow cytometry, Detroit 562 cells

Measured: MFI value

human B7-H3 on the surface of human cancer cells (human), sequence (Q5ZPR3 29-534 limits assumed): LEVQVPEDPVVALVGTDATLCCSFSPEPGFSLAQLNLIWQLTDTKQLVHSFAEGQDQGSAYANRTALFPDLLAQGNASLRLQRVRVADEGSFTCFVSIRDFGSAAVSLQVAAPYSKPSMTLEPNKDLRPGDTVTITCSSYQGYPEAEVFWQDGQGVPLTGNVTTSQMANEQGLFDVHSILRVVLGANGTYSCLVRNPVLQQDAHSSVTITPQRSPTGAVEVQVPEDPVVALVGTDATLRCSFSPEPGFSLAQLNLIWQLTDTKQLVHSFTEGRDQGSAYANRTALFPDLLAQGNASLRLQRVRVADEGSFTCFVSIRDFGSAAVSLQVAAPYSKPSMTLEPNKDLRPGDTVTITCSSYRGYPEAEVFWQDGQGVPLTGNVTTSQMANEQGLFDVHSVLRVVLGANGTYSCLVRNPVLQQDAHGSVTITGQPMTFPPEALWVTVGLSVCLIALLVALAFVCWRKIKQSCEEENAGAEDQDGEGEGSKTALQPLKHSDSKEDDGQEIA

IgG (isotype control antibody)
< 600 MFI: all assays above
